Assay results: patent publication US20180022779A1 (UNIVERSITY OF VIRGINIA PATENT FOUNDATION, published 2018)

Target: T1, mouse eNOS (endogenous, thoracodorsal arteries) (mouse, UniProt P70313 2-1202)
T1 sequence (looked up): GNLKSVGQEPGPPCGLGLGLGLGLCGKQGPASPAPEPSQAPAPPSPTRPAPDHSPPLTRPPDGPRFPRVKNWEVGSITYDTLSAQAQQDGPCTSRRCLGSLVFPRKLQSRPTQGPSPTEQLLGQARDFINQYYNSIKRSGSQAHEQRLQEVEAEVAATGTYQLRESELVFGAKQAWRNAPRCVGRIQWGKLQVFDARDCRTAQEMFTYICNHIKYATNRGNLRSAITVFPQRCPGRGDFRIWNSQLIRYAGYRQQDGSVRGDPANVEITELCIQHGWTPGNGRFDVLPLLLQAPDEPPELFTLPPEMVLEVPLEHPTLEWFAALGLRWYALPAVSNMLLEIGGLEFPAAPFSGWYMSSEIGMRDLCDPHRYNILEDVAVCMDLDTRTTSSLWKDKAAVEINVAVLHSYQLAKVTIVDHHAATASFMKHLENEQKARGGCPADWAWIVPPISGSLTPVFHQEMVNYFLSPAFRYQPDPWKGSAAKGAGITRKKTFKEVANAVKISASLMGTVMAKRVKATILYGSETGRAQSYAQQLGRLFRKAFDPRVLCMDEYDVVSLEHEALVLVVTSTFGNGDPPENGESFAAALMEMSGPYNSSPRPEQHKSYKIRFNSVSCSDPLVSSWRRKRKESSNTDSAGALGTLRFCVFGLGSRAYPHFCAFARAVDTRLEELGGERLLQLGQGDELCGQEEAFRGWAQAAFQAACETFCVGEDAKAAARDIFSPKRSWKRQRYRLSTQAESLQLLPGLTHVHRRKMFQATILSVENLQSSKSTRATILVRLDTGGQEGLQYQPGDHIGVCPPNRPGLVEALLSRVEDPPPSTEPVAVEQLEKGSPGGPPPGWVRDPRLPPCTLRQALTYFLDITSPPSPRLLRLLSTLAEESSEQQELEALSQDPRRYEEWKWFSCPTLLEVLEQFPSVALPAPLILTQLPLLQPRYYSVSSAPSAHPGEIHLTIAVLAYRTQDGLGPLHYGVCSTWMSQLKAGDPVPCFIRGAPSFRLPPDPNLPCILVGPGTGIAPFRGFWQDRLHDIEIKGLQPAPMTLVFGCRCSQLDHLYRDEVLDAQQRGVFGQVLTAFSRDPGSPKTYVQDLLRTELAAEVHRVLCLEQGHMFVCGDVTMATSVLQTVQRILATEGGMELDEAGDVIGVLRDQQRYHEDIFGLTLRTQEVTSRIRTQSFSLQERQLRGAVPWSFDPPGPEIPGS
Experiment: cell-based or functional assay

With YGRKKRRQRRRLSFPTTKTYF [Hb α X peptide (HIV-tat tag linked to LSFPTTKTYF)] the “EC50 of phenylephrine ([PE] producing half of the maximum effect), thoracodorsal arteries treated with Hb α X” value was 6.8 µM.
